Results published in patent publication US20160228506A1, “Compositions and Formulations for Prevention and Reduction of Tumorigenesis, Cancer Cell Proliferation and Invasion, and Methods of Production and Use Thereof in Cancer Treatment” (PRONUTRIA, INC., priority 2013, published 2016).
Changes are numbered by the printed parent chain. Names may count otherwise.

B1: R134M: single amino acid mutant of SEQID-00338, substrate binding position 134 (protein, listed as Saccharomyces cerevisiae)
chain: MSSSESIRMVLIGPPGAGKGTQAPNLQERFHAAHLATGDMLRSQIAKGTQLGLEAKKIMDQGGLVSDDIMVNMIKDELTNNPACKNGFILDGFPRTIPQAEKLDQMLKEQGTPLEKAIELKVDDELLVARITGMLIHPASGRSYHKIFNPPKEDMKDDVTGEALVQRSDDNADALKKRLAAYHAQTEPIVDFYKKTGIWAGVDASQPPATVWADILNKLGKD
modifications: source: /note="strain ATCC 204508 / S288c"
B2: R42Q: single amino acid mutant of SEQID-00338, position 42 (protein, listed as Saccharomyces cerevisiae)
chain: B1 chain with R42Q, M134R
modifications: source: /note="strain ATCC 204508 / S288c"
B3: R42G: single amino acid mutant of SEQID-00338, position 42 (protein, listed as Saccharomyces cerevisiae)
chain: B1 chain with R42G, M134R
modifications: source: /note="strain ATCC 204508 / S288c"
B4: R42A: single amino acid mutant of SEQID-00338, substrate binding position 42 (protein, listed as Saccharomyces cerevisiae)
chain: B1 chain with R42A, M134R
modifications: source: /note="strain ATCC 204508 / S288c"
B5: R42K: single amino acid mutant of SEQID-00338, position 42 (protein, listed as Saccharomyces cerevisiae)
chain: B1 chain with R42K, M134R
modifications: source: /note="strain ATCC 204508 / S288c"
B6: R42T: single amino acid mutant of SEQID-00338, position 42 (protein, listed as Saccharomyces cerevisiae)
chain: B1 chain with R42T, M134R
modifications: source: /note="strain ATCC 204508 / S288c"
B7: R42I: single amino acid mutant of SEQID-00338, position 42 (protein, listed as Saccharomyces cerevisiae)
chain: B1 chain with R42I, M134R
modifications: source: /note="strain ATCC 204508 / S288c"
B8: R134Y: single amino acid mutant of SEQID-00338, substrate binding position 134 (protein, listed as Saccharomyces cerevisiae)
chain: B1 chain with M134Y
modifications: source: /note="strain ATCC 204508 / S288c"
B9: R42C: single amino acid mutant of SEQID-00338, position 42 (protein, listed as Saccharomyces cerevisiae)
chain: B1 chain with R42C, M134R
modifications: source: /note="strain ATCC 204508 / S288c"
B10: D91F: single amino acid mutant of SEQID-00338, magnesium ion binding site position 91 (protein, listed as Saccharomyces cerevisiae)
chain: B1 chain with D91F, M134R
modifications: source: /note="strain ATCC 204508 / S288c"
B11: R42L: single amino acid mutant of SEQID-00338, position 42 (protein, listed as Saccharomyces cerevisiae)
chain: B1 chain with R42L, M134R
modifications: source: /note="strain ATCC 204508 / S288c"

The molecules below were run on SEQID-00338 kinase activity (AMP + ATP→ADP) (assay: Kinase activity of SEQID-00338 (ADP-Glo Max Assay)). Conditions: 7 μg/mL, 30 minute reaction at 30° C.
Type: biochemical
Description: The ADP-Glo™ Max Assay was obtained from Promega (Catalog number V7001, Madison, Wis.). Adenosine Monophosphate was obtained from Sigma-Aldrich (Catalog number A1752, St. Louis, Mo.). 5× Kinase Buffer was prepared w/ 1.211 g Tris Base (Catalog number BP152-2, Fisher Bioreagents, Pittsburgh, Pa.), 692 μL 12% hydrochloric acid solution (Catalog number BDH3026-500MLP, VWR, Radnor, Pa.), 10.0 mL 500 mM magnesium chloride (Catalog number BP214-500, Fisher Bioreagents, Pittsburgh, Pa.) and the volume brought to 50 mL with MilliQ water and filtered through 0.22 μm PES filter (Catalog number SCGP00525, Millipore, Billerica, Mass.) into a sterile 50 mL tube.
Twelve his-tag purified mutant proteins and the wild-type protein at 35 μg/mL in Tris buffer were serially diluted to 7.0 and 1.4 μg/mL. Prepared kinase reaction mix at 0.5 mM AMP/0.5 mM ATP to test for activity and at 0 mM AMP/0 mM ATP to assay background activity by diluting 5× Kinase Buffer with appropriate volumes of 10 mM AMP and 10 mM ATP in MilliQ water. Duplicate reactions were prepared by mixing 9 μL of the reaction mixture with 6 μL of diluted SEQID-00338, mixing by pipetting up and down and dispensing 5 μL into a 384-well white OptiPlate (PerkinElmer, Waltham, Mass.). An ADP standard curve was prepared by serially diluting 4 mM ADP in MilliQ water and adding kinase buffer to 1× for a standard at 0.0005, 0.001, 0.005, 0.01, 0.05, 0.1, 0.5, 1, 2, 3, and 4 mM ADP. The plate was covered with a foil plate seal and incubated at 30° C. for 30 min. Following the kinase reaction, 5 μL of ADP-Glo™ Reagent was added to each well. The plate was sealed with a foil plate seal and placed on a horizontal plate shaker at 450 rpm for 2 minutes at room temperature. The plate was removed from the plate shaker and incubated at room temperature for 40 minutes. The plate was then centrifuged for 15 seconds at 1109×rcf and 10 μL of ADP-Glo™ Max Detection Reagent was added. The plate was sealed with a foil plate seal and shaken on a horizontal plate shaker at 450 rpm at room temperature for 2 minutes. The plate was then removed from the plate shaker and incubated at room temperature for 60 minutes. The plate was centrifuged for 15 seconds at 1109×rcf and the luminescence read on an EnspireAlpha plate reader (PerkinElmer, Waltham, Mass.).
The ADP standard curve was used to determine the concentration of ADP in sample wells in the presence or absence of substrate. Concentrations were determined by performing a non-linear 4 parameter logistic on the X=log(X) transformed ADP standard luminescence values. […] Where the background concentration of ADP in the absence of substrate was calculable the average of those values were subtracted from the calculated ADP concentration in the substrate incubated wells. Activity knock out was calculated by percentage activity relative to purified wild-type protein at the same concentration.

Row | Molecule | AVG percent activity relative to purified wild-type protein [%]
1 | B1 | 0.3
2 | B2 | 1.2
3 | B3 | 1.2
4 | B4 | 0.9
5 | B5 | 2.2
6 | B6 | 1.9
7 | B7 | 1.5
8 | B8 | 0.2
9 | B9 | 1.8
10 | B10 | 0.9
11 | B11 | 1.7
